Measurements taken from paper PMC4822050, “Hemi-methylated DNA opens a closed conformation of UHRF1 to facilitate its histone recognition” (Nature Communications, 2016).

Key:
[1] = target: T1, full-length UHRF1 (residues 1–793) (human, UniProt Q96T88 1-793); test: ITC; 0.05 mM protein in the cell, 0.5 mM protein or peptide in the syringe, iTC200, 18 °C, 10 mM HEPES pH 8.0, 100 mM NaCl; conditions: both partners purified
T1 construct: human UHRF1, residues 1–793; monomer by gel filtration; also called wild-type UHRF1; ICBP90
T1 sequence (looked up): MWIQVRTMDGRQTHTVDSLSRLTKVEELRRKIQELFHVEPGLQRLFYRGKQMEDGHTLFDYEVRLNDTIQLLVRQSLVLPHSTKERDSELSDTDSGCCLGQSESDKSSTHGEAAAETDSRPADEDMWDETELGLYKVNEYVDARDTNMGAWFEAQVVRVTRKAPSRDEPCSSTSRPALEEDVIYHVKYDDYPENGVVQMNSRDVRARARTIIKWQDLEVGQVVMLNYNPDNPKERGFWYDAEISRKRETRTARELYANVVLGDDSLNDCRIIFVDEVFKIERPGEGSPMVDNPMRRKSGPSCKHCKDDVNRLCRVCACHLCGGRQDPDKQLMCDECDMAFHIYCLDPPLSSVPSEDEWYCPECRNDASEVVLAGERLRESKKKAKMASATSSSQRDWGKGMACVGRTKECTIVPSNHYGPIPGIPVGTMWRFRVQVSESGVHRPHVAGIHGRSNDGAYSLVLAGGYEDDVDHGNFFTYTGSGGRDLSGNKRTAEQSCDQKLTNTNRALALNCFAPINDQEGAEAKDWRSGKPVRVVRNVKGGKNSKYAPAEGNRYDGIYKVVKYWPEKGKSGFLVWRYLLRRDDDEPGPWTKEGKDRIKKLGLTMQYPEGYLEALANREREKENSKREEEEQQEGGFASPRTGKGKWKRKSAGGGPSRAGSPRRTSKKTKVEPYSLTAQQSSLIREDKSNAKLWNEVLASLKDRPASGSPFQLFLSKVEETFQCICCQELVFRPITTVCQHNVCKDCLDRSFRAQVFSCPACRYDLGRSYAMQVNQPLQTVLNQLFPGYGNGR

[2] = target: T2, TTD–PHD of UHRF1 (residues 134–366) (human, UniProt Q96T88 134-366); test: as above; conditions: both partners purified
T2 sequence (looked up): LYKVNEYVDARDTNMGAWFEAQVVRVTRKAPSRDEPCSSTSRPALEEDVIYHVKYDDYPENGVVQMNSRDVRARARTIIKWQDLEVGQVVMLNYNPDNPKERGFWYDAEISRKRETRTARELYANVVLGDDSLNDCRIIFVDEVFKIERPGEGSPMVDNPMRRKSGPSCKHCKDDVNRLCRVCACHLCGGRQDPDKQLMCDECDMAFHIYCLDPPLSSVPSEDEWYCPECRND

ARTKQTARKSTGGKAPR (peptide, UniProt P68431 2-18, looked up, trimethyl-lysine at K9, histone H3, residues 1–17) [H3K9me3 peptide (1–17)]
Kd [1]: 4610 nM | Kd [2]: 150 nM
